This assay concerns the target T1, VSV Gth, soluble form of the ectodomain of VSV glycoprotein G (residues 1-422) (Vesicular stomatitis virus (Mudd-Summer …, UniProt P0C2X0 17-438)).
T1 sequence: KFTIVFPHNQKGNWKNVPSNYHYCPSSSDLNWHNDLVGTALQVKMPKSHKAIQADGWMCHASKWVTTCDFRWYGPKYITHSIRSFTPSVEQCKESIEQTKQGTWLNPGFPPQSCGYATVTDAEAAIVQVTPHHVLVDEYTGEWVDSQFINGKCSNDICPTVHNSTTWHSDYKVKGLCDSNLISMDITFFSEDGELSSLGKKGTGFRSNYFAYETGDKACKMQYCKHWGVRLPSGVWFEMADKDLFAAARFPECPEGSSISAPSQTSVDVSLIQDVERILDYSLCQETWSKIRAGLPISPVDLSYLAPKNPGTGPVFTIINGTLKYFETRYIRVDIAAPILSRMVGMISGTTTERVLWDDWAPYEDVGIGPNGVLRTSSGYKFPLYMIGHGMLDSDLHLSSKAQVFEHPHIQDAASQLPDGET
In words: ITC. Particulars: both partners purified.

B1: LDL-R CR2 domain, isolated (GST cleaved off) (domain or fragment)
chain: not shown
notes: also called CR2 monovalent domain; not shown: GST, N-terminal, cleaved
Consider B1, for which the Kd is 7.3 µM and the “stoichiometry N” value turned out to be 1.

B2: LDL-R CR3 domain, isolated (GST cleaved off) (domain or fragment)
chain: not shown
notes: also called CR3 monovalent domain; not shown: GST, N-terminal, cleaved
Turning to B2, the dissociation constant (Kd) worked out at 4.3 µM and the “stoichiometry N” value is 1.

One may read the Kd as the concentration at which binding is half-saturated. Lower therefore signals tighter binding. A word on the stoichiometry N: it is the number of molecules, sites or subunits per partner or assembly.

The values above are taken from paper PMC5847621 (Nature Communications, 2018).
